From patent publication US20050239072, “Device and methods for concentrating prion protein isoforms” (published 2005)

Tests used:
[1] = biological target: T1, human recombinant prion protein hrPrP (PrP23-231) (Homo sapiens, UniProt P04156 P04156:23-231); assay: FP filter; conditions: tags: E. coli GST fusion, GST removed by thrombin cleavage; label: 32P internal
[2] = biological target: T1, human recombinant prion protein hrPrP …; assay: FP filter; no tRNA; 250 mM NaCl, 2 mM MgCl2, 37 C; conditions: tags: E. coli GST fusion, GST removed by thrombin cleavage
[3] = biological target: human recombinant PrP90-231 (lacks N-terminal 23-90) (Homo sapiens, UniProt P04156 P04156:90-231)
[4] = biological target: T1, human recombinant prion protein hrPrP …; assay: pulldown; conditions: tags: E. coli GST fusion, GST removed by thrombin cleavage; label: none; hybridized to oligo-dT-cellulose

B1: MNV:AP1 (ssRNA)
RNA: GGGUUCAUAGCCUAUUCGGCUUCGCGCAUGGGAAUUUGAGGGACGAUGGGGAAGUGGGAGCGCGUUUUAAAGGACCUUUUUCCCUCGCGUAGCUAGCUACGCGAGGUGACCCCCCGAAGGGGGGUGCCCC
Kd [1]: 3.8 nM

B2: RQT157 (ssRNA)
RNA: GGGGUUUCGAACCGGAAUUUGAGGGAUGCCUAGGCAUCCCCCGUGCGUCCCUUUACGAGGGAUUGUCGACUCUAGAGGAUCCGGUACCUGAGGGAUGCCUAGGCAUCCCCGCGCGCCGGUUUCGGACCUCCAGUGCGUGUUACCGCACUGUCGACCC
Kd ([2]; label: 32P internal): 56 nM

B3: RQ11+12 (ssRNA)
RNA: GGGGUUUCCAACCGGAAUUUGAGGGAUGCCUAGGCAUCCCCCGUGCGUCCCUUUACGAGGGAUUGUCGACUCUAGUCGACGUCUGGGCGAAAAAUGUACGAGAGGACCUUUUCGGUACAGACGGUACCUGAGGGAUGCCUAGGCAUCCCCGCGCGCCGGUUUCGGACCUCCAGUGCGUGUUACCGCACUGUCGACCC
binding result [3]: no binding
Kd ([2]; label: 32P internal (alpha-32P CTP)): 26 nM

B4: RQAAA (RQ11+12 with 3' poly-A15) (ssRNA)
RNA: GGGGUUUCCAACCGGAAUUUGAGGGAUGCCUAGGCAUCCCCCGUGCGUCCCUUUACGAGGGAUUGUCGACUCUAGUCGACGUCUGGGCGAAAAAUGUACGAGAGGACCUUUUCGGUACAGACGGUACCUGAGGGAUGCCUAGGCAUCCCCGCGCGCCGGUUUCGGACCUCCAGUGCGUGUUACCGCACUGUCGACCCAAAAAAAAAAAAAAA
binding result [4]: binds
